Laboratory results from PMC9352680, “A comprehensive thermodynamic model for RNA binding by the Saccharomyces cerevisiae Pumilio protein PUF4”.

T1: PUF4 RNA-binding domain (Saccharomyces cerevisiae, UniProt P25339 537-888)
T1 sequence: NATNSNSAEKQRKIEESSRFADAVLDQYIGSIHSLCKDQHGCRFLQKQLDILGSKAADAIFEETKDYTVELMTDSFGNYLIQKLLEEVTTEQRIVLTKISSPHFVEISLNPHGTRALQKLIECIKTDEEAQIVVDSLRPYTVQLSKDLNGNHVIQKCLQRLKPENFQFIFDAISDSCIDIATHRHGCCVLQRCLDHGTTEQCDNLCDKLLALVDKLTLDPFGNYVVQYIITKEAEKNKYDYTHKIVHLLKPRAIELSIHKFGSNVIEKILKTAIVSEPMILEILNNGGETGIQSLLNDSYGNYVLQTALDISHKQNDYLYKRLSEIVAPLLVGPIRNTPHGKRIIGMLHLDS


target: T1, PUF4 RNA-binding domain; experiment: Mg; RNA-MaP; 20 mM Na-HEPES pH 7.4, 30 mM KOAc, 0.75 mM MgCl2, 0.1% Tween-20, 5% glycerol, 0.1 mg/mL BSA, 2 mM DTT; 25 C; 0.0125-409.6 nM protein; conditions: tags: N-His6-TEV cleaved; C-SNAP kept, Cy3B-labelled; label: tethered on chip by stalled RNA polymerase

Binder	Kd [nM]
UCUCUUUGUAAACUAAUCUCUU (ssRNA) [Ic_S1_P5E.1_K5.1_C5.1_H5.1_A5.1_[T5A]_[T6A]_[A7C]_F5.1_[T9A]_T5.1]	3.01
UCUCUUUGUAUCUAUCUCUCUU (ssRNA) [Ic_S1_P5E.1_K5.1_C5.1_H5.1_A5.1_[T6C]_[A7T]_F5.1_[T8A]_[A10C]_T5.1]	41.5
UCUCUUUGUAACUGACUCUCUU (ssRNA) [Ic_S1_P5E.1_K5.1_C5.1_H5.1_A5.1_[T5A]_[T6C]_[A7T]_F5.1_[T8G]_[T9A]_[A10C]_T5.1]	448
UCUCUUUGUAUGGUAAUCUCUU (ssRNA) [Ic_S1_P5E.1_K5.1_C5.1_H5.1_A5.1_[T6G]_[A7G]_F5.1_[T9A]_T5.1]	32.1
UCUCUUUGUAUUUCGUUCUCUU (ssRNA) [Ic_S1_P5E.1_K5.1_C5.1_H5.1_A5.1_[A7T]_F5.1_[T8C]_[T9G]_[A10T]_T5.1]	370
UCUCUUUGUAAUAUAUUCUCUU (ssRNA) [Ic_S1_P5E.1_K5.1_C5.1_H5.1_A5.1_[T5A]_F5.1_[T9A]_[A10T]_T5.1]	2.21
UCUCUUUGUAUUGCCAUCUCUU (ssRNA) [Ic_S1_P5E.1_K5.1_C5.1_H5.1_A5.1_[A7G]_F5.1_[T8C]_[T9C]_T5.1]	955
UCUCUUUGUAUCGCCGUCUCUU (ssRNA) [Ic_S1_P5E.1_K5.1_C5.1_H5.1_A5.1_[T6C]_[A7G]_F5.1_[T8C]_[T9C]_[A10G]_T5.1]	> 2300
UCUCUUUGUACAUGUUUCUCUU (ssRNA) [Ic_S1_P5E.1_K5.1_C5.1_H5.1_A5.1_[T5C]_[T6A]_[A7T]_F5.1_[T8G]_[A10T]_T5.1]	27.2
UCUCUUUGUAUACCACUCUCUU (ssRNA) [Ic_S1_P5E.1_K5.1_C5.1_H5.1_A5.1_[T6A]_[A7C]_F5.1_[T8C]_[T9A]_[A10C]_T5.1]	20.7
UCUCUUUGUAUGGCAUUCUCUU (ssRNA) [Ic_S1_P5E.1_K5.1_C5.1_H5.1_A5.1_[T6G]_[A7G]_F5.1_[T8C]_[T9A]_[A10T]_T5.1]	1040
UCUCUUUGUAAAACCGUCUCUU (ssRNA) [Ic_S1_P5E.1_K5.1_C5.1_H5.1_A5.1_[T5A]_[T6A]_F5.1_[T8C]_[T9C]_[A10G]_T5.1]	1190
UCUCUUUGUAAGUUGUUCUCUU (ssRNA) [Ic_S1_P5E.1_K5.1_C5.1_H5.1_A5.1_[T5A]_[T6G]_[A7T]_F5.1_[T9G]_[A10T]_T5.1]	495
UCUCUUUGUACGUAAUUCUCUU (ssRNA) [Ic_S1_P5E.1_K5.1_C5.1_H5.1_A5.1_[T5C]_[T6G]_[A7T]_F5.1_[T8A]_[T9A]_[A10T]_T5.1]	126
UCUCUUUGUACAGCAUUCUCUU (ssRNA) [Ic_S1_P5E.1_K5.1_C5.1_H5.1_A5.1_[T5C]_[T6A]_[A7G]_F5.1_[T8C]_[T9A]_[A10T]_T5.1]	23.4
UCUCUUUGUAGUUAUUUCUCUU (ssRNA) [Ic_S1_P5E.1_K5.1_C5.1_H5.1_A5.1_[T5G]_[A7T]_F5.1_[T8A]_[A10T]_T5.1]	705
UCUCUUUGUAUUUGCGUCUCUU (ssRNA) [Ic_S1_P5E.1_K5.1_C5.1_H5.1_A5.1_[A7T]_F5.1_[T8G]_[T9C]_[A10G]_T5.1]	659
UCUCUUUGUAAGCUGCUCUCUU (ssRNA) [Ic_S1_P5E.1_K5.1_C5.1_H5.1_A5.1_[T5A]_[T6G]_[A7C]_F5.1_[T9G]_[A10C]_T5.1]	604
UCUCUUUGUAGUAUAUUCUCUU (ssRNA) [Ic_S1_P5E.1_K5.1_C5.1_H5.1_A5.1_[T5G]_F5.1_[T9A]_[A10T]_T5.1]	8.21
UCUCUUUGUAUUUAAUUCUCUU (ssRNA) [Ic_S1_P5E.1_K5.1_C5.1_H5.1_A5.1_[A7T]_F5.1_[T8A]_[T9A]_[A10T]_T5.1]	46.2
UCUCUUUGUAUAUAAAUCUCUU (ssRNA) [Ic_S1_P5E.1_K5.1_C5.1_H5.1_A5.1_[T6A]_[A7T]_F5.1_[T8A]_[T9A]_T5.1]	8.13
UCUCUUUGUAAAAUUUUCUCUU (ssRNA) [Ic_S1_P5E.1_K5.1_C5.1_H5.1_A5.1_[T5A]_[T6A]_F5.1_[A10T]_T5.1]	23.8

Binder	Kd [nM]
UCUCUUUGUACUCCCAUCUCUU (ssRNA) [Ic_S1_P5E.1_K5.1_C5.1_H5.1_A5.1_[T5C]_[A7C]_F5.1_[T8C]_[T9C]_T5.1]	1300
UCUCUUUGUAAACGCCUCUCUU (ssRNA) [Ic_S1_P5E.1_K5.1_C5.1_H5.1_A5.1_[T5A]_[T6A]_[A7C]_F5.1_[T8G]_[T9C]_[A10C]_T5.1]	1060
UCUCUUUGUACGUCAUUCUCUU (ssRNA) [Ic_S1_P5E.1_K5.1_C5.1_H5.1_A5.1_[T5C]_[T6G]_[A7T]_F5.1_[T8C]_[T9A]_[A10T]_T5.1]	96.5
UCUCUUAGCAUAUAUCUCUU (ssRNA) [Ib_S1_P3E.1_K3.1_C3.1_H3.1_[T1A]_[T3C]_A3.1_F3.1_T3.1]	> 2300
UCUCUUUGUACCAUACUCUCUU (ssRNA) [Ic_S1_P5E.1_K5.1_C5.1_H5.1_A5.1_[T5C]_[T6C]_F5.1_[T9A]_[A10C]_T5.1]	1.59
UCUCUUUGUAUGUCCAUCUCUU (ssRNA) [Ic_S1_P5E.1_K5.1_C5.1_H5.1_A5.1_[T6G]_[A7T]_F5.1_[T8C]_[T9C]_T5.1]	363
UCUCUUUGUAAUCCUUUCUCUU (ssRNA) [Ic_S1_P5E.1_K5.1_C5.1_H5.1_A5.1_[T5A]_[A7C]_F5.1_[T8C]_[A10T]_T5.1]	697
UCUCUUUGUAAGUAUAUCUCUU (ssRNA) [Ic_S1_P5E.1_K5.1_C5.1_H5.1_A5.1_[T5A]_[T6G]_[A7T]_F5.1_[T8A]_T5.1]	95
UCUCUUUGUAAUUGCCUCUCUU (ssRNA) [Ic_S1_P5E.1_K5.1_C5.1_H5.1_A5.1_[T5A]_[A7T]_F5.1_[T8G]_[T9C]_[A10C]_T5.1]	645
UCUCUUUGUAUACUACUCUCUU (ssRNA) [Ic_S1_P5E.1_K5.1_C5.1_H5.1_A5.1_[T6A]_[A7C]_F5.1_[T9A]_[A10C]_T5.1]	2.89
UCUCUUUGUAGCAGCUUCUCUU (ssRNA) [Ic_S1_P5E.1_K5.1_C5.1_H5.1_A5.1_[T5G]_[T6C]_F5.1_[T8G]_[T9C]_[A10T]_T5.1]	> 2300
UCUCUUUGUAAAUCACUCUCUU (ssRNA) [Ic_S1_P5E.1_K5.1_C5.1_H5.1_A5.1_[T5A]_[T6A]_[A7T]_F5.1_[T8C]_[T9A]_[A10C]_T5.1]	63.1
UCUCUUUGUAUAUCAUCUCUU (ssRNA) [Ic_S1_P4E.1_K4.1_C4.1_H4.1_A4.1_F4.1_[T8C]_T4.1]	8.57
UCUCUUGGCAUAUAUCUCUU (ssRNA) [Ib_S1_P3E.1_K3.1_C3.1_H3.1_[T1G]_[T3C]_A3.1_F3.1_T3.1]	> 2300
UCUCUUUGUAUACGGUUCUCUU (ssRNA) [Ic_S1_P5E.1_K5.1_C5.1_H5.1_A5.1_[T6A]_[A7C]_F5.1_[T8G]_[T9G]_[A10T]_T5.1]	90.4
UCUCUUUGUACUUCUAUCUCUU (ssRNA) [Ic_S1_P5E.1_K5.1_C5.1_H5.1_A5.1_[T5C]_[A7T]_F5.1_[T8C]_T5.1]	7.77
UCUCUUUGUACGGUCGUCUCUU (ssRNA) [Ic_S1_P5E.1_K5.1_C5.1_H5.1_A5.1_[T5C]_[T6G]_[A7G]_F5.1_[T9C]_[A10G]_T5.1]	> 2300
UCUCUUUGUACACCCCUCUCUU (ssRNA) [Ic_S1_P5E.1_K5.1_C5.1_H5.1_A5.1_[T5C]_[T6A]_[A7C]_F5.1_[T8C]_[T9C]_[A10C]_T5.1]	113
UCUCUUUGUACACCAUUCUCUU (ssRNA) [Ic_S1_P5E.1_K5.1_C5.1_H5.1_A5.1_[T5C]_[T6A]_[A7C]_F5.1_[T8C]_[T9A]_[A10T]_T5.1]	16.1
UCUCUUUGUAACCCAUUCUCUU (ssRNA) [Ic_S1_P5E.1_K5.1_C5.1_H5.1_A5.1_[T5A]_[T6C]_[A7C]_F5.1_[T8C]_[T9A]_[A10T]_T5.1]	711
UCUCUUUGUACUUCAUUCUCUU (ssRNA) [Ic_S1_P5E.1_K5.1_C5.1_H5.1_A5.1_[T5C]_[A7T]_F5.1_[T8C]_[T9A]_[A10T]_T5.1]	75.9
UCUCUUUGUAAGUACGUCUCUU (ssRNA) [Ic_S1_P5E.1_K5.1_C5.1_H5.1_A5.1_[T5A]_[T6G]_[A7T]_F5.1_[T8A]_[T9C]_[A10G]_T5.1]	2240

Binder	Kd [nM]
UCUCUUUGUACCUCGAUCUCUU (ssRNA) [Ic_S1_P5E.1_K5.1_C5.1_H5.1_A5.1_[T5C]_[T6C]_[A7T]_F5.1_[T8C]_[T9G]_T5.1]	660
UCUCUUUGUACGAACCUCUCUU (ssRNA) [Ic_S1_P5E.1_K5.1_C5.1_H5.1_A5.1_[T5C]_[T6G]_F5.1_[T8A]_[T9C]_[A10C]_T5.1]	1700
UCUCUUGGUCUAUAUCUCUU (ssRNA) [Ib_S1_P3E.1_K3.1_C3.1_H3.1_[T1G]_[A4C]_A3.1_F3.1_T3.1]	> 2300
UCUCUUUGUACAAUUCUCUCUU (ssRNA) [Ic_S1_P5E.1_K5.1_C5.1_H5.1_A5.1_[T5C]_[T6A]_F5.1_[A10C]_T5.1]	12.1
UCUCUUUGUAUGGCUGUCUCUU (ssRNA) [Ic_S1_P5E.1_K5.1_C5.1_H5.1_A5.1_[T6G]_[A7G]_F5.1_[T8C]_[A10G]_T5.1]	2120
UCUCUUUGUACCAGCUUCUCUU (ssRNA) [Ic_S1_P5E.1_K5.1_C5.1_H5.1_A5.1_[T5C]_[T6C]_F5.1_[T8G]_[T9C]_[A10T]_T5.1]	747
UCUCUUUGUAAUACUUUCUCUU (ssRNA) [Ic_S1_P5E.1_K5.1_C5.1_H5.1_A5.1_[T5A]_F5.1_[T8C]_[A10T]_T5.1]	212
UCUCUUUGUAACAGCCUCUCUU (ssRNA) [Ic_S1_P5E.1_K5.1_C5.1_H5.1_A5.1_[T5A]_[T6C]_F5.1_[T8G]_[T9C]_[A10C]_T5.1]	1140
UCUCUUGUUAUAUAUCUCUU (ssRNA) [Ib_S1_P3E.1_K3.1_C3.1_H3.1_[T1G]_[G2T]_A3.1_F3.1_T3.1]	47
UCUCUUUGUAAGUUUGUCUCUU (ssRNA) [Ic_S1_P5E.1_K5.1_C5.1_H5.1_A5.1_[T5A]_[T6G]_[A7T]_F5.1_[A10G]_T5.1]	697
UCUCUUUGUAUCUUUCUCUU (ssRNA) [Ic_S1_P3E.1_K3.1_C3.1_H3.1_A3.1_[A6C]_F3.1_[A8T]_T3.1]	32.3
UCUCUUUGUAUUCCCAUCUCUU (ssRNA) [Ic_S1_P5E.1_K5.1_C5.1_H5.1_A5.1_[A7C]_F5.1_[T8C]_[T9C]_T5.1]	587
UCUCUUUGUAUAAAUCUCUU (ssRNA) [Ia_S1_P3E.1_K3.1_C3.1_H3.1_A3.1_F3.1_[T7A]_T3.1]	50.4
UCUCUUUGUAUUUUUCUCUU (ssRNA) [Ib_S1_P3E.1_K3.1_C3.1_H3.1_A3.1_[A6T]_F3.1_[A8T]_T3.1]	26.1
UCUCUUUGUAUCCGUGUCUCUU (ssRNA) [Ic_S1_P5E.1_K5.1_C5.1_H5.1_A5.1_[T6C]_[A7C]_F5.1_[T8G]_[A10G]_T5.1]	1060
UCUCUUUGUAAUUUUCUCUCUU (ssRNA) [Ic_S1_P5E.1_K5.1_C5.1_H5.1_A5.1_[T5A]_[A7T]_F5.1_[A10C]_T5.1]	29.8
UCUCUUUGUACCCUAGUCUCUU (ssRNA) [Ic_S1_P5E.1_K5.1_C5.1_H5.1_A5.1_[T5C]_[T6C]_[A7C]_F5.1_[T9A]_[A10G]_T5.1]	4.32
UCUCUUUGUAACGGUCUCUCUU (ssRNA) [Ic_S1_P5E.1_K5.1_C5.1_H5.1_A5.1_[T5A]_[T6C]_[A7G]_F5.1_[T8G]_[A10C]_T5.1]	> 2300
UCUCUUUGUAAGCCAUUCUCUU (ssRNA) [Ic_S1_P5E.1_K5.1_C5.1_H5.1_A5.1_[T5A]_[T6G]_[A7C]_F5.1_[T8C]_[T9A]_[A10T]_T5.1]	317
UCUCUUUGUAUGCAGUUCUCUU (ssRNA) [Ic_S1_P5E.1_K5.1_C5.1_H5.1_A5.1_[T6G]_[A7C]_F5.1_[T8A]_[T9G]_[A10T]_T5.1]	1990
